For two molecules, EC50 results are on record in patent US12448462 (dated 2025).

The target of the experiment is T1, MUC1 (human, UniProt P15941 1039-1148).
T1 chain: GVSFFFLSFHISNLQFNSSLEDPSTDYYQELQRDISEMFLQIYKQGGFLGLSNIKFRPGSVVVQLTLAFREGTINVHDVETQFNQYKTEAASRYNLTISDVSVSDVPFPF
Nature of the experiment: flow.

B1: anti-Muc1 T4E3 Fab (Fab, V domains shown)
VH: QVQLVQSGGGLVQPGGSLRLSCAASGFTFDDYAMHWVRQAPGKGLEWVSGISWNSGSIGYADSVKGRFTISRDNAKNSLYLQMNSLRAEDTALYYCAKDIGSGSYYNYYYGMDVWGQGTTATISS
VL: SSELTQDPAVSVALGQTVRITCQGDSLRSYYASWYQQKPGQAPVLVIYGKNSRPSGIPDRFSGSNSGSTASLTITGAQAEDEADYYCNSRDRYGNSLVIFGGGTKLTVL
Turning to B1, the EC50 (usually the midpoint of the concentration-response curve) was 16 nM.

B2: T4E3 scFv (scFv, V domains shown)
VH: QVQLVQSGGGLVQPGGSLRLSCAASGFTFDDYAMHWVRQAPGKGLEWVSGISWNSGSIGYADSVKGRFTISRDNAKNSLYLQMNSLRAEDTALYYCAKDIGSGSYYNYYYGMDVWGQGTTATISS
VL: SSELTQDPAVSVALGQTVRITCQGDSLRSYYASWYQQKPGQAPVLVIYGKNSRPSGIPDRFSGSNSGSTASLTITGAQAEDEADYYCNSRDRYGNSLVIFGGGTKLTVL
Take B2: the EC50 worked out at 7.48 nM.
